This is an account of results in FireProtDB (doi:10.1110/ps.073137708).

The labels stand for the following.
B1: H69A, Q7SID9 (parent)
chain: STGPVAPLPTPPNFPNDIALFQQAYQNWSKEIMLDATWVCSPKTPQDVVRLANWAHEHDYKIRPRGAMHGWTPLTVEKGANVEKVILADTMTHLNGITVNTGGPVATVTAGAGASIEAIVTELQKHDLGWANLPAPGVLSIGGALAVNAHGAALPAVGQTTLPGHTYGSLSNLVTELTAVVWNGTTYALETYQRNDPRITPLLTNLGRCFLTSVTMQAGPNFRQRCQSYTDIPWRELFAPKGADGRTFEKFVAESGGAEAIWYPFTEKPWMKVWTVSPTKPDSSNEVGSLGSAGSLVGKPPQAREVSGPYNYIFSDNLPEPITDMIGAINAGNPGIAPLFGPAMYEITKLGLAATNANDIWGWSKDVQFYIKATTLRLTEGGGAVVTSRANIATVINDFTEWFHERIEFYRAKGEFPLNGPVEIRCCGLDQAADVKVPSVGPPTISATRPRPDHPDWDVAIWLNVLGVPGTPGMFEFYREMEQWMRSHYNNDDATFRPEWSKGWAFGPDPYTDNDIVTNKMRATYIEGVPTTENWDTARARYNQIDPHRVFTNGFMDKLLP

Where “and” joins values, the source holds several entries; their conditions need not be identical. Equal values may be shown once.

The variants in the data set derive from B1. Particulars: Brevibacterium sterolicum; pH 7.5; 15 °C; Urea; Fluorescence; Potassium phosphate 50 mM; reversible: Yes (partial); structure 2I0K; whole UniProt chain shown.
Take H69A: the “denaturant midpoint (higher = more stable)” value was 2.9 M and 3.5 M and 2.7 M; the unfolding free energy was 1.53 kcal/mol and 1.36 kcal/mol and 1.2 kcal/mol.
